B1: CBL peptide 540-555 (E3 ubiquitin-protein ligase CBL), 16-mer library wild type / YES SH3 (YES1 SH3 domain, residues 90-152) (parent complex)
chain 1: RDLPPPPPPDRPYSVG
chain 2: not shown

Experimental findings from PMC12102759 (2025) are described below.

In the experiment the parent is B1. In words: proteomic peptide phage display deep mutational scan (ProP-PD DMS): M13 P8 16-mer library selected against immobilised GST-tagged bait for four days (rounds), NGS of the eluted pools per day and pseudo-replica; bait immobilised on MaxiSorp plates (10 µg), library pre-cleared on GST, 2 h binding at 4 °C, five washes; one round per day, days 1-4; value from days 2 and 3.
Turning to chain 1 R11H, the screen value was 0.000484 average fractional NGS count over selection days 2 and 3 (reads of this peptide / all reads for the bait, averaged over ….

Consider chain 1 R11G, for which the screen value was 0.00318 average fractional NGS count over selection days 2 and 3 (reads of this peptide / all reads for the bait, averaged over …. For chain 1 R11T, the screen value is 0.00408 average fractional NGS count over selection days 2 and 3 (reads of this peptide / all reads for the bait, averaged over …. Take chain 1 R11M: the screen value is 0.00776 average fractional NGS count over selection days 2 and 3 (reads of this peptide / all reads for the bait, averaged over …. Take chain 1 R11V: the screen value is 0.00622 average fractional NGS count over selection days 2 and 3 (reads of this peptide / all reads for the bait, averaged over …. For the variant chain 1 R11K, the screen value is 0.000739 average fractional NGS count over selection days 2 and 3 (reads of this peptide / all reads for the bait, averaged over …. For chain 1 R11L, the screen value is 0.00999 average fractional NGS count over selection days 2 and 3 (reads of this peptide / all reads for the bait, averaged over …. chain 1 R11Q: the screen value is 0.00199 average fractional NGS count over selection days 2 and 3 (reads of this peptide / all reads for the bait, averaged over ….

Regarding chain 1 R11E, the screen value is 0.000556 average fractional NGS count over selection days 2 and 3 (reads of this peptide / all reads for the bait, averaged over …. Take chain 1 R11P: the screen value was 0.00145 average fractional NGS count over selection days 2 and 3 (reads of this peptide / all reads for the bait, averaged over …. Next, chain 1 R11A: 8.11e-05 average fractional NGS count over selection days 2 and 3 (reads of this peptide / all reads for the bait, averaged over …; chain 1 R11D: 0.000209 average fractional NGS count over selection days 2 and 3 (reads of this peptide / all reads for the bait, averaged over ….

As for chain 1 R11S, the screen value is 0.000485 average fractional NGS count over selection days 2 and 3 (reads of this peptide / all reads for the bait, averaged over …. chain 1 R11F: the screen value is 0.00146 average fractional NGS count over selection days 2 and 3 (reads of this peptide / all reads for the bait, averaged over …. chain 1 Y13K: the screen value was 0.000696 average fractional NGS count over selection days 2 and 3 (reads of this peptide / all reads for the bait, averaged over …. With chain 1 Y13Q, the screen value was 0.00091 average fractional NGS count over selection days 2 and 3 (reads of this peptide / all reads for the bait, averaged over …. In the case of chain 1 Y13G, the screen value was 8.54e-05 average fractional NGS count over selection days 2 and 3 (reads of this peptide / all reads for the bait, averaged over ….

With chain 1 Y13E, the screen value is 0.000222 average fractional NGS count over selection days 2 and 3 (reads of this peptide / all reads for the bait, averaged over ….

chain 1 Y13I: the screen value was 0.00384 average fractional NGS count over selection days 2 and 3 (reads of this peptide / all reads for the bait, averaged over …. As for chain 1 Y13R, the screen value is 0.000326 average fractional NGS count over selection days 2 and 3 (reads of this peptide / all reads for the bait, averaged over …. Consider chain 1 V15N, for which the screen value was 0.00181 average fractional NGS count over selection days 2 and 3 (reads of this peptide / all reads for the bait, averaged over ….

chain 1 V15S: the screen value was 0.00131 average fractional NGS count over selection days 2 and 3 (reads of this peptide / all reads for the bait, averaged over ….

Consider chain 1 V15H, for which the screen value was 0.00504 average fractional NGS count over selection days 2 and 3 (reads of this peptide / all reads for the bait, averaged over …. Next, chain 1 V15E: 0.00362 average fractional NGS count over selection days 2 and 3 (reads of this peptide / all reads for the bait, averaged over …; chain 1 V15T: 0.000212 average fractional NGS count over selection days 2 and 3 (reads of this peptide / all reads for the bait, averaged over …; chain 1 V15L: 0.000286 average fractional NGS count over selection days 2 and 3 (reads of this peptide / all reads for the bait, averaged over …. chain 1 V15P: the screen value is 0.00539 average fractional NGS count over selection days 2 and 3 (reads of this peptide / all reads for the bait, averaged over …. With chain 1 P12M, the screen value was 0.0175 average fractional NGS count over selection days 2 and 3 (reads of this peptide / all reads for the bait, averaged over …. With chain 1 P12K, the screen value was 0.00165 average fractional NGS count over selection days 2 and 3 (reads of this peptide / all reads for the bait, averaged over …. Consider chain 1 P12G, for which the screen value was 0.000184 average fractional NGS count over selection days 2 and 3 (reads of this peptide / all reads for the bait, averaged over …. As to chain 1 P12H, the screen value is 0.00204 average fractional NGS count over selection days 2 and 3 (reads of this peptide / all reads for the bait, averaged over …. Next, chain 1 P12N: 0.000558 average fractional NGS count over selection days 2 and 3 (reads of this peptide / all reads for the bait, averaged over …; chain 1 P12F: 0.00458 average fractional NGS count over selection days 2 and 3 (reads of this peptide / all reads for the bait, averaged over …. For chain 1 P12A, the screen value is 0.00443 average fractional NGS count over selection days 2 and 3 (reads of this peptide / all reads for the bait, averaged over …. For the variant chain 1 P12V, the screen value is 0.002 average fractional NGS count over selection days 2 and 3 (reads of this peptide / all reads for the bait, averaged over ….

Regarding chain 1 P12L, the screen value is 0.0025 average fractional NGS count over selection days 2 and 3 (reads of this peptide / all reads for the bait, averaged over …. As for chain 1 P12Y, the screen value is 0.000171 average fractional NGS count over selection days 2 and 3 (reads of this peptide / all reads for the bait, averaged over ….

For chain 1 P12Q, the screen value was 0.0162 average fractional NGS count over selection days 2 and 3 (reads of this peptide / all reads for the bait, averaged over …. Next, chain 1 P6E: 0.000208 average fractional NGS count over selection days 2 and 3 (reads of this peptide / all reads for the bait, averaged over ….

For the variant chain 1 P6N, the screen value is 0.000163 average fractional NGS count over selection days 2 and 3 (reads of this peptide / all reads for the bait, averaged over ….

As to chain 1 P6R, the screen value is 0.00111 average fractional NGS count over selection days 2 and 3 (reads of this peptide / all reads for the bait, averaged over ….

On to chain 1 P6Y, for which the screen value is 0.000164 average fractional NGS count over selection days 2 and 3 (reads of this peptide / all reads for the bait, averaged over ….

Regarding chain 1 P6V, the screen value is 0.0162 average fractional NGS count over selection days 2 and 3 (reads of this peptide / all reads for the bait, averaged over …. As for chain 1 P6A, the screen value was 0.0119 average fractional NGS count over selection days 2 and 3 (reads of this peptide / all reads for the bait, averaged over …. chain 1 D2K: the screen value is 0.000177 average fractional NGS count over selection days 2 and 3 (reads of this peptide / all reads for the bait, averaged over ….

For chain 1 D2F, the screen value is 0.000357 average fractional NGS count over selection days 2 and 3 (reads of this peptide / all reads for the bait, averaged over …. Take chain 1 D2P: the screen value was 0.00891 average fractional NGS count over selection days 2 and 3 (reads of this peptide / all reads for the bait, averaged over …. Next, chain 1 D2I: 0.00123 average fractional NGS count over selection days 2 and 3 (reads of this peptide / all reads for the bait, averaged over …. For chain 1 D2V, the screen value was 0.00212 average fractional NGS count over selection days 2 and 3 (reads of this peptide / all reads for the bait, averaged over ….

Regarding chain 1 D2M, the screen value is 0.0201 average fractional NGS count over selection days 2 and 3 (reads of this peptide / all reads for the bait, averaged over …. With chain 1 D2Y, the screen value was 0.00341 average fractional NGS count over selection days 2 and 3 (reads of this peptide / all reads for the bait, averaged over …. Take chain 1 D2S: the screen value is 0.00111 average fractional NGS count over selection days 2 and 3 (reads of this peptide / all reads for the bait, averaged over …. Next, chain 1 D2E: 0.0027 average fractional NGS count over selection days 2 and 3 (reads of this peptide / all reads for the bait, averaged over …. On to chain 1 D2A, for which the screen value was 0.00577 average fractional NGS count over selection days 2 and 3 (reads of this peptide / all reads for the bait, averaged over …. In the case of chain 1 D10T, the screen value is 0.00033 average fractional NGS count over selection days 2 and 3 (reads of this peptide / all reads for the bait, averaged over …. chain 1 D10G: the screen value was 0.00202 average fractional NGS count over selection days 2 and 3 (reads of this peptide / all reads for the bait, averaged over …. For chain 1 D10P, the screen value is 0.000173 average fractional NGS count over selection days 2 and 3 (reads of this peptide / all reads for the bait, averaged over ….

Consider chain 1 D10W, for which the screen value is 0.00158 average fractional NGS count over selection days 2 and 3 (reads of this peptide / all reads for the bait, averaged over ….

chain 1 D10I: the screen value is 0.000128 average fractional NGS count over selection days 2 and 3 (reads of this peptide / all reads for the bait, averaged over …. For chain 1 D10N the value was 0.000163 average fractional NGS count over selection days 2 and 3 (reads of this peptide / all reads for the bait, averaged over …; for chain 1 D10E, 0.0012 average fractional NGS count over selection days 2 and 3 (reads of this peptide / all reads for the bait, averaged over …. For chain 1 D10Q the value was 0.000233 average fractional NGS count over selection days 2 and 3 (reads of this peptide / all reads for the bait, averaged over …. As to chain 1 D10K, the screen value is 0.00142 average fractional NGS count over selection days 2 and 3 (reads of this peptide / all reads for the bait, averaged over …. As for chain 1 D10V, the screen value is 0.000894 average fractional NGS count over selection days 2 and 3 (reads of this peptide / all reads for the bait, averaged over …. Take chain 1 D10S: the screen value is 0.000232 average fractional NGS count over selection days 2 and 3 (reads of this peptide / all reads for the bait, averaged over …. In the case of chain 1 D10L, the screen value was 0.00104 average fractional NGS count over selection days 2 and 3 (reads of this peptide / all reads for the bait, averaged over …. Next, chain 1 D10A: 0.00828 average fractional NGS count over selection days 2 and 3 (reads of this peptide / all reads for the bait, averaged over …; chain 1 S14V: 7.3e-05 average fractional NGS count over selection days 2 and 3 (reads of this peptide / all reads for the bait, averaged over …. Consider chain 1 S14D, for which the screen value was 0.000862 average fractional NGS count over selection days 2 and 3 (reads of this peptide / all reads for the bait, averaged over ….

For the variant chain 1 S14A, the screen value was 0.00883 average fractional NGS count over selection days 2 and 3 (reads of this peptide / all reads for the bait, averaged over ….

As for chain 1 S14M, the screen value was 0.00137 average fractional NGS count over selection days 2 and 3 (reads of this peptide / all reads for the bait, averaged over …. Take chain 1 S14R: the screen value is 6.61e-05 average fractional NGS count over selection days 2 and 3 (reads of this peptide / all reads for the bait, averaged over …. Turning to chain 1 S14F, the screen value was 0.0172 average fractional NGS count over selection days 2 and 3 (reads of this peptide / all reads for the bait, averaged over …. chain 1 S14Y: the screen value is 0.00258 average fractional NGS count over selection days 2 and 3 (reads of this peptide / all reads for the bait, averaged over …. As to chain 1 S14E, the screen value is 0.0212 average fractional NGS count over selection days 2 and 3 (reads of this peptide / all reads for the bait, averaged over ….
